Assays:
[1] = target: His6-NEDD8 (UniProt Q15843 1-76); test: BLI
[2] = target: His6-ubiquitin (UniProt P0CG48 1-76); test: BLI

His6-NEDD8, sequence (Q15843 1-76): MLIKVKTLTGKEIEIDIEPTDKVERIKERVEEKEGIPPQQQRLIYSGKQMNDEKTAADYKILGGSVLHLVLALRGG

- Kd [1]: 14 ± 3 µM
- Kd [2]: 17 ± 3 µM
Binder: RHKQEEQDRLLALQLQKEVDKEQM (domain or fragment, UniProt Q8IYW5 439-462, looked up) [GST-RNF168-MIU2 (439-462)]
